Data reported in paper PMC2173870 (The Journal of Cell Biology, 2002).
Several values for one entry are separate records, joined by “and”; a condition that tells them apart may be missing. Identical values can stand only once.

Target: the molecule itself
Assay: SEC

## RMKKKDEGSYDLGKKPILQQAPTNEFYA (peptide, UniProt P34901 175-202, looked up) [syndecan-4 cytoplasmic tail peptide, PIP2- mutant (Y192KK to LQQ)]
  stoichiometry N: 4 and 6
